Measured values from PMC2615004.

Target: photosynthetic reaction center from Rhodobacter sphaeroides, native (strain R26) (Rhodobacter sphaeroides) (UniProt P0C0Y8)
Experiment: flash absorption spectroscopy

Q: Which dH does the source give for “cytochrome c2 from Rhodobacter sphaeroides (from UniProt P0C0X8 1-124) (natural protein)” here?
A: Its dH is 54 meV.
